Assay [1] concerns the target T1, CD99 peptide containing the 10A1 epitope, Ac-GENDDPRPPNPPKPM-amide (human).
T1 chain: Ac-GENDDPRPPNPPKPM-NH2
As to the kind of experiment: crystal structure.

The target of assay [2] is T2, CD99, endogenously expressed on T-ALL cells (Jurkat, KOPT-K1) (human (endogenous in Jurkat and KOPT-K1)) (UniProt P14209).
T2 sequence (chain, O-linked glycosylation): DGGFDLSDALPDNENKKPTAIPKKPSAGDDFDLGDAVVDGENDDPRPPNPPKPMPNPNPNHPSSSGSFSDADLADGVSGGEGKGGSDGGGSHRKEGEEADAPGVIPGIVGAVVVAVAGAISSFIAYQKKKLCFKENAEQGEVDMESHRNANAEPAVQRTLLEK

B1: 10A1 Fab (Fab, V domains shown)
VH: QVQLQQSGPVLVKPSQTLSLTCAISGDSISSDTTAWSWIRRSPSRGLEWLGWTYYRSKWFNYYAVSVKGRVTINPDTSKNQFSLQLSSVTPEDTAVYYCARGNGNGGMDVWGQGTTVTVSS
VL: SYVLTQPASASVSPGQTARITCSGDALPKQYAYWYQQKPGQAPVLVIFKDSERPSGVPERFSGSSSGTTVTLTISGAQAEDEADYYCQSVDNSGFYQVFGGGTQLTVL
On to B1, for which, in assay [1], the binding result is recorded as “binds”. Moreover, in assay [2], the IC50 (nM Fv) of cytotoxicity, Annexin V staining of KOPT-K1 cells after 18 h is > 2000 nM Fv.

The values are drawn from publication PMC8897262 (Journal of molecular biology, 2021).
